Assay results: paper PMC4141822

Experiments:
Conditions in all cases: protein: recombinant; tags: none stated (pET24a); label: 5' 32P
Csa5 Y29A = target: T1, Csa5 Y29A (Thermoproteus tenax Kra1, UniProt G4RJZ0 1-130, Y29A); experiment: EMSA; shift from 15 uM; EMSA: 100 mM HEPES/KOH pH 7, 10 mM beta-mercaptoethanol, 37 C 30 min, 6% native TBE PAGE; MST: 50 mM Tris-HCl pH 7.4, 150 mM NaCl, 0.05% Tween-20, 37 C 30 min
T1 sequence: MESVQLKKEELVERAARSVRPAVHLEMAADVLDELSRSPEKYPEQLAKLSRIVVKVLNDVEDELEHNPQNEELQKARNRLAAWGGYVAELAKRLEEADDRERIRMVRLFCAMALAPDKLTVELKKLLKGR

Csa5 D33A = target: T2, Csa5 D33A (Thermoproteus tenax Kra1, UniProt G4RJZ0 1-130, D33A); experiment: as above
T2 sequence: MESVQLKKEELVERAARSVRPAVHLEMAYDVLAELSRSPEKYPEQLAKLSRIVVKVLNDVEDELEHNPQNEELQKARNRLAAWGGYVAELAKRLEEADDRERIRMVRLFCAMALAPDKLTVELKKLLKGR

Csa5 D30A/D33A = target: T3, Csa5 D30A/D33A (Thermoproteus tenax Kra1, UniProt G4RJZ0 1-130, D30A;D33A); experiment: EMSA; defined shift from 30 uM; EMSA: 100 mM HEPES/KOH pH 7, 10 mM beta-mercaptoethanol, 37 C 30 min, 6% native TBE PAGE; MST: 50 mM Tris-HCl pH 7.4, 150 mM NaCl, 0.05% Tween-20, 37 C 30 min
T3 sequence: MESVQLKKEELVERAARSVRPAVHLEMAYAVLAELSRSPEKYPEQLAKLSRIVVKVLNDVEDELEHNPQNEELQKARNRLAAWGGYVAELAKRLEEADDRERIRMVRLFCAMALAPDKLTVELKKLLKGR

B1: non-target (NT) ssDNA 97 nt (ssDNA)
DNA: GTCGACTAATACGACTCACTATAGGCCTATCGCTTGTCCAACCGGGCTCCTCTATATGTCGTCATTAGCTTACCGCTGAGCAATAACTAGCAAGCTT
B1 was tested, and the binding signal (Csa5 Y29A) was ~10 % of WT binding, the binding signal (Csa5 D33A) was ~18 % of WT binding and the binding signal (Csa5 D30A/D33A) was ~4 % of WT binding.
